Laboratory results from US10994019B2, “Bicyclic peptide-toxin conjugates specific for MT1-MMP” (BicycleRD Limited, priority 2016, dated 2021).
Starred links: 1 amine or outer side, 2 acyl side, 3 side chain; linkers in the order of their positions; H or OH if unused. Positions of bridges follow the written chain, without caps; N, C: chain ends. Non-standard residues stand in square brackets, D forms with d. Residues, ends and D or L forms follow the SMILES beside them. *: point of attachment. X1 = COc1cc2cc(c1Cl)N(C)C(=O)C[C@H](OC(=O)[C@H](C)N(C)C(=O)CCSSC(C)(C)CCC(=O)*)[C@]1(C)O[C@H]1[C@H](C)[C@@H]1C[C@@](O)(NC(=O)O1)[C@H](OC)/C=C/C=C(\C)C2; 1Nal = N[C@@H](Cc1cccc2ccccc12)C(=O)O; TBMB = c1c(C[*:1])cc(C[*:3])cc1C[*:2]; Tle = CC(C)(C)[C@H](N)C(=O)O; βAla = NCCC(=O)O; Sar = CNCC(=O)O

Key:
[1] = system: MMP-1, MMP-2, MMP-15 and MMP-16; experiment: Selectivity for MT1-MMP over other MMPs; type: binding
[2] = system: murine, dog, cynomolgus and human MT1-MMP; experiment: Species cross-reactivity of peptide ligands; type: binding
[3] = Plasma stability profiling, Method #2 (quantitative LC-MS), human plasma; type: in vitro ADME; conditions: incubation up to 24 hrs in plasma, 4 μM BDC, read-out: t1/2 (hrs) (human plasma) (converted)
Description: (§1) To obtain plasma stability of bicyclic peptides quantitatively, peptide stock solutions (160 μM in DMSO) were mixed with plasma (human, rat or mouse), such that final concentrations were 4 μM, and incubated at 37° C. 40 μL samples were taken periodically up to 24 hrs and frozen at −80° C. Prior to LC-MS analysis, samples were defrosted, and mixed with 3 volumes (here, 120 μL) of 1 part water, 3 parts acetonitrile and 3 parts methanol. The milky suspensions were centrifuged for 40 min at 14000 rpm in a cooled centrifuge, and peptide-containing supernatants were quantitated for doubly/triply charged species and MS/MS fragments thereof using a Waters Xevo TQ-D instrument, while using a plasma extracted standard curve of the same peptides as a reference. The half-life of degradation in plasma was used to assess the comparative stability of the molecules.

[4] = Plasma stability profiling, Method #2 (quantitative LC-MS), mouse plasma; type: in vitro ADME; conditions: incubation up to 24 hrs in plasma, 4 μM BDC, read-out: t1/2 (hrs) (mouse plasma) (converted)
Description: as §1

[5] = Plasma stability profiling, Method #2 (quantitative LC-MS), rat plasma; type: in vitro ADME; conditions: incubation up to 24 hrs in plasma, 4 μM BDC, read-out: t1/2 (hrs) (rat plasma) (converted)
Description: as §1

[6] = Relative stability to DTT of Bicycle Drug Conjugates by quantitative LC-MS; type: physicochemical; conditions: compared to unhindered disulphide BDCs
Description: Both BDC conjugate structures were assessed for several in vitro parameters such as retention of potency to the human MT1-MMP hemopexin domain, stability in mouse, rat and human plasma, and stability to reducing agents such as dithiothreitol.

EBC-1 xenograft tumours = experiment: Efficacy in EBC-1 xenograft mice; type: in vivo, Balb/c nude mice
Description: (§2) Efficacy of BT17BDC-27 and BT17BDC-28 in EBC-1 Xenograft Mice.
(§3) Balb/c nude mice bearing subcutaneous EBC-1 xenograft tumours were treated with BDCs or vehicle. BDCs were dosed 3 times weekly for 2 weeks, dosing initiated when tumours measured approx. 150-200 mm^3. Mice were monitored, and measurements of tumour volume and body weight recorded 3 times a week.
Both BDCs were tested for their efficacies in in vivo mouse xenograft models, using the human lung squamous cell carcinoma line EBC-1.

[7] = Body weight during treatment of EBC-1 xenograft mice; type: in vivo, Balb/c nude mice; conditions: 10 mg/kg
Description: FIG. 2: Body weight during treatment of EBC-1 xenograft mice with BT17BDC-27, which is indicative of drug-associated toxicology and overall animal health.
FIG. 4: Body weight during treatment of EBC-1 xenograft mice with BT17BDC-28, which is indicative of drug-associated toxicology and overall animal health.
as §2, §3

[8] = cited from earlier work; for reduction in sensitivity to a reducing agent such as dithiothreitol: in the antibody drug conjugate context; for Relative Stability to DTT (ADC): values relate to antibody drug conjugates containing the disulphide linker
[9] = 10 mg/kg, dosed 3 times weekly for 2 weeks

-Ci-Y-N-E-F-G-Cii-E-D-F-Y-D-I-Ciii- [17-69-07]
selectivity for MT1-MMP (no cross-reaction with MMP-1, MMP-2, MMP-15 and MMP-16) [1]: uniquely selective for MT1-MMP

C[C@H](N)C(=O)N[C@H]1CSCc2cc3cc(c2)CSC[C@H](NC(=O)[C@@H](C)NC(=O)[C@H](Cc2cccc4ccccc24)NC(=O)[C@H](CCC(=O)O)NC(=O)[C@H](CC(N)=O)NC(=O)[C@@H](C)NC1=O)C(=O)N[C@@H](CCC(=O)O)C(=O)N[C@@H](CC(=O)O)C(=O)N[C@@H](Cc1ccccc1)C(=O)N[C@@H](Cc1ccc(O)cc1)C(=O)N[C@@H](CC(=O)O)C(=O)N[C@@H](C(C)(C)C)C(=O)N[C@H](C(N)=O)CSC3 [17-69-07-N268, A-(17-69-07) D-Ala1 1Nal4 D-Ala5 tBuGly11] (H-AC[dA]NE[1Nal][dA]CEDFYD[Tle]C-NH2; linker 2-8-15 via TBMB)
cross-reactivity with murine, dog, cynomolgus and human MT1-MMP [2]: fully cross reactive

C[C@H](NC(=O)CN(C)C(=O)CN(C)C(=O)CN(C)C(=O)CN(C)C(=O)CN(C)C(=O)CN(C)C(=O)CN(C)C(=O)CN(C)C(=O)CN(C)C(=O)CN(C)C(=O)CCN)C(=O)N[C@H]1CSCc2cc3cc(c2)CSC[C@H](NC(=O)[C@@H](C)NC(=O)[C@H](Cc2cccc4ccccc24)NC(=O)[C@H](CCC(=O)O)NC(=O)[C@H](CC(N)=O)NC(=O)[C@@H](C)NC1=O)C(=O)N[C@@H](CCC(=O)O)C(=O)N[C@@H](CC(=O)O)C(=O)N[C@@H](Cc1ccccc1)C(=O)N[C@@H](Cc1ccc(O)cc1)C(=O)N[C@@H](CC(=O)O)C(=O)N[C@@H](C(C)(C)C)C(=O)N[C@H](C(N)=O)CSC3 [17-69-07-N241, bAla-Sar10-A-(17-69-07) D-Ala1 1Nal4 D-Ala5 tBuGly11] (H-[βAla][Sar][Sar][Sar][Sar][Sar][Sar][Sar][Sar][Sar][Sar]AC[dA]NE[1Nal][dA]CEDFYD[Tle]C-NH2; linker 13-19-26 via TBMB)
cross-reactivity with murine, dog, cynomolgus and human MT1-MMP [2]: fully cross reactive

COc1cc2cc(c1Cl)N(C)C(=O)C[C@H](OC(=O)[C@H](C)N(C)C(=O)CCSSC(C)(C)CCC(=O)NCCC(=O)N(C)CC(=O)N(C)CC(=O)N(C)CC(=O)N(C)CC(=O)N(C)CC(=O)N(C)CC(=O)N(C)CC(=O)N(C)CC(=O)N(C)CC(=O)N(C)CC(=O)N[C@@H](C)C(=O)N[C@H]1CSCc3cc4cc(c3)CSC[C@H](NC(=O)[C@@H](C)NC(=O)[C@H](Cc3cccc5ccccc35)NC(=O)[C@H](CCC(=O)O)NC(=O)[C@H](CC(N)=O)NC(=O)[C@@H](C)NC1=O)C(=O)N[C@@H](CCC(=O)O)C(=O)N[C@@H](CC(=O)O)C(=O)N[C@@H](Cc1ccccc1)C(=O)N[C@@H](Cc1ccc(O)cc1)C(=O)N[C@@H](CC(=O)O)C(=O)N[C@@H](C(C)(C)C)C(=O)N[C@H](C(N)=O)CSC4)[C@]1(C)O[C@H]1[C@H](C)[C@@H]1C[C@@](O)(NC(=O)O1)[C@H](OC)/C=C/C=C(\C)C2 [BT17BDC-28] ({X1-βAla}-[Sar][Sar][Sar][Sar][Sar][Sar][Sar][Sar][Sar][Sar]AC[dA]NE[1Nal][dA]CEDFYD[Tle]C-NH2; linker 12-18-25 via TBMB)
half-life at 4 μM [3]: 29 h | half-life at 4 μM [4]: 19 h | half-life at 4 μM [5]: 13 h | Relative Stability to DTT (BDC) [6]: 28 | effect on tumour growth (EBC-1 xenograft tumours; [9]): tumour growth stasis but not active regression | body weight [7]: no weight loss was observed | reduction in sensitivity to a reducing agent such as dithiothreitol [8]: 14 fold | Relative Stability to DTT (ADC) [8]: 14

COc1cc2cc(c1Cl)N(C)C(=O)C[C@H](OC(=O)[C@H](C)N(C)C(=O)CCSSC(C)(C)CCC(=O)N[C@@H](C)C(=O)N[C@H]1CSCc3cc4cc(c3)CSC[C@H](NC(=O)[C@@H](C)NC(=O)[C@H](Cc3cccc5ccccc35)NC(=O)[C@H](CCC(=O)O)NC(=O)[C@H](CC(N)=O)NC(=O)[C@@H](C)NC1=O)C(=O)N[C@@H](CCC(=O)O)C(=O)N[C@@H](CC(=O)O)C(=O)N[C@@H](Cc1ccccc1)C(=O)N[C@@H](Cc1ccc(O)cc1)C(=O)N[C@@H](CC(=O)O)C(=O)N[C@@H](C(C)(C)C)C(=O)N[C@H](C(N)=O)CSC4)[C@]1(C)O[C@H]1[C@H](C)[C@@H]1C[C@@](O)(NC(=O)O1)[C@H](OC)/C=C/C=C(\C)C2 [BT17BDC-27] (X1-AC[dA]NE[1Nal][dA]CEDFYD[Tle]C-NH2; linker 2-8-15 via TBMB)
half-life at 4 μM [3]: 36 h | half-life at 4 μM [4]: 23 h | half-life at 4 μM [5]: 9 h | Relative Stability to DTT (BDC) [6]: 32 | cleared tumours within (EBC-1 xenograft tumours; [9]): ≤ 14 days | efficacy and tolerability (EBC-1 xenograft tumours; doses equal or lower than 5 mg/kg): appreciable efficacy and tolerability | body weight [7]: slight reduction in body weight | reduction in sensitivity to a reducing agent such as dithiothreitol [8]: 14 fold | Relative Stability to DTT (ADC) [8]: 14
